The target of the assay is F-actin (polymerized rabbit muscle G-actin) (Oryctolagus cuniculus (Rabbit), UniProt P68135). The assay can be described thus: F-actin co-sedimentation.

B1: GST-tagged ENTH domain of rat epsin 1 (protein)
chain: MSTSSLRRQMKNIVHNYSEAEIKVREATSNDPWGPSSSLMSEIADLTYNVVAFSEIMSMIWKRLNDHGKNWRHVYKAMTLMEYLIKTGSERVSQQCKENMYAVQTLKDFQYVDRDGKDQGVNVREKAKQLVALLRDEDRLREER
B1: the binding result is on record as “no binding”.

The values are drawn from PMC4161027 (2014).
